This series relates to ZIC2 zinc finger domains (five ZnF). Kind of series: ITC. As to conditions: ITC: 300 mM NaCl, 50 mM potassium phosphate, pH 8.0, 25 C, EMSA: binding buffer not specified, 30 min 37 C, 6% PAGE 1x TBE 4 C. On the technique in general: In EMSA bound probe runs differently from free probe, usually more slowly.

As to antisense PCAT92 RNA, where the note is “RNA 60 uM into protein 5 uM”, the Ka was 1e+06 M⁻¹.

As for “sense PCAT92 RNA (predicted ZIC2-binding region)”, the Ka came out at 1e+09 M⁻¹.

(Values after publication PMC6126693.)
